This is an account of results in publication PMC10624894 (Nature Communications, 2023).

To fix the notation:
B1: Nb^643 (VHH)
VHH: QVQLVESGGGLVQPGGSLRLSCAASGIAFSRNAVGWYRQAPGKQRELVARSNTVGATNYADSVKGRFTISRDNDKSTVYLQMNSLKPEDTAVYYCNIYLYGDRTGSTLNSWGQGTQVTVSS
notes: also called nanobody 643; source: E. coli WK6, periplasmic expression, purified (SEC as the final step)
B2: Nb^632 (VHH)
VHH: QVQLVESGGGLVQAGGSLRLSCVASGGTFSNYGMGWFRQAPGKEREFVAAVRWSGDSTYYSDSVKGRFTISRDNAKNTVYLQMNGLKPEDTAVYYCARRLNWRFISNWDKESEYAYWGQGTQVTVSS
notes: also called nanobody 632; source: E. coli WK6, periplasmic expression, purified (SEC as the final step)
B3: Nb^633 (VHH)
VHH: QVQLVESGGGLVQAGASLRLSCAASGRTFSSYAMGWFRQAPGKEREFVAAISPLGQTTYYTDSVKGRFTISRDNAKNTLYLQMNSLKPEDTAVYYCAQGSLSEVRLGKSTYWGQGTQVTVSS
notes: also called nanobody 633; source: E. coli WK6, periplasmic expression, purified (SEC as the final step)

The target of this experiment is EA1ΔD6 (Bacillus anthracis (strain 7702), UniProt P94217, biotin (EZ-Link NHS-PEG4-Biotin) in the BLI experiment only). Kind of experiment: BLI; […] (3 µg/ml) […]; room temperature; […]. The conditions noted are these: both partners purified.
B1: binding was characterised by a dissociation constant (Kd) of 1.9 nM. Then B2, with 2.2 nM; and B3, with 13 nM.
